# Source: publication PMC9300185 (Chembiochem, 2021)
# B1: LecA, galactose-binding lectin of Pseudomonas aeruginosa (natural protein)
# chain: AWKGEVLANNEAGQVTSIIYNPGDVITIVAAGWASYGPTQKWGPQGDREHPDQGLICHDAFCGALVMKIGNSGTIPVNTGLFRWVAPNNVQGAITLIYNDVPGTYGNNSGSFSVNIGKDQS
# Target: the molecule itself
# Assay: crystal structure
protein,measurement,value
B1,stoichiometry N,4
